Test results as given in patent US20070224199A1 (UNIVERSITY OF CENTRAL FLORIDA RESEARCH FOUNDATION, published 2007).
Numbering of substitutions follows the chain as printed. In names and notes the source's numbering stands. Blank lines part the entries; values can stand above or below the binder they belong to.

Key:
[1] = molecular target: T1, Flag-hTERT (N-terminal Flag-tagged full-length hTERT) (human, UniProt O14746 1-1132); assay: co-immunoprecipitation from H1299 cells (anti-Flag IP, anti-V5 immunoblot), with MG132
T1 construct: expressed in transfected H1299 cells; also called Flag-tagged hTERT
Procedure: Amino acid sequences surrounding the RING finger domain in MKRN1 and mutants used in this study. Cysteines and a histidine in the RING finger domain are shown in red. Mutated residue in MKRN1^H307E is shown in blue. (C) H1299 cells co-transfected with hTERT-HA and MKRN1 -V5 were either untreated or treated for 2 hours with 10 μg/ml ALLnN. Anti-HA immunoprecipitates were analyzed by immunoblotting using an anti-V5 antibody probe. […] (D) H1299 cells co-transfected with Flag-hTERT and MKRN1-V5 were either untreated or treated for 2 hours with 10 μM MG132. Anti-Flag immunoprecipitates were analyzed by immunoblotting using an anti-V5 antibody probe. […] Flag-hTERT was visualized with an anti-Flag antibody probe.
H1299 cells were transiently transfected with the expression vectors indicated in the figure legends using TransFast transfection reagent (Promega, Medison, Wis.) according to the manufacturer's instructions. Cells were lysed with buffer containing 0.5% NP-40, 50 mM Tris-HCl (pH 7.5), 150 mM NaCl, 2 mM phenyl methylsulphonyl fluoride. […] When ubiquitin conjugates of hTERT were detected, immunoprecipitation was performed with lysis buffer containing 0.1% SDS to dissociate its interacting proteins. […]

[2] = molecular target: T2, GST-hTERT-HA (C-terminal region, amino acid 946-1132, of hTERT), O14746
T2 chain: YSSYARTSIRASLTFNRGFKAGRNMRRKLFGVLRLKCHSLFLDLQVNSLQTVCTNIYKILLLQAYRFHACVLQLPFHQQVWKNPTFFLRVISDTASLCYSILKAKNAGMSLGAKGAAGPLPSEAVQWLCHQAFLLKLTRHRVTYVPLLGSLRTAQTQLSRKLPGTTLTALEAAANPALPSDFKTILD

[3] = molecular target: T1, Flag-hTERT (N-terminal Flag-tagged …); assay: inferred from the dominant negative effect in the in vivo ubiquitination assay in H1299 cells
Procedure: H1299 cells were transiently transfected with the expression vectors indicated in the figure legends using TransFast transfection reagent (Promega, Medison, Wis.) according to the manufacturer's instructions. Cells were lysed with buffer containing 0.5% NP-40, 50 mM Tris-HCl (pH 7.5), 150 mM NaCl, 2 mM phenyl methylsulphonyl fluoride. After centrifugation at 12,000 rpm for 30 min, the supernatants were immunoprecipitated for 2 hours with anti-Flag (Sigma, St. Louis, Mo.) or anti-HA (Santa Cruz biotechnology, Santa Cruz, Calif.) antibodies and then incubated with Sepharose beads conjugated to Protein G (Amersham Biosciences Inc., Piscataway, N.J.). When ubiquitin conjugates of hTERT were detected, immunoprecipitation was performed with lysis buffer containing 0.1% SDS to dissociate its interacting proteins. Immunoblot analyses were performed using anti-hTERT (Santa Cruz biotechnology, Santa Cruz, Calif.), anti-V5 (Invitrogen, Carlsbad, Calif.), anti-HA, and anti-Flag antibodies.
To investigate whether MKRN1 contributes to the ubiqitination of hTERT in vivo, H1299 cells were cotransfected with Flag-hTERT, HA-ubiquitin, and MKRN1-V5 constructs, and immunoprecipitated with anti-Flag antibody followed by immunoblotting with anti-HA antibody. Ubiquitin conjugates of hTERT were easily detected in the presence of MG132 (FIG. 4B, lane 2 in upper blot). […]

binding result [1]: binds
B1: MKRN1-V5 (enzyme, not shown: small tags and cut ends)
chain: MAEAATPGTTATTSGAGAAAATAAAASPTPIPTVTAPSLGAGGGGGGSDGSGGGWTKQVTCRYFMHGVCKEGDNCRYSHDLSDSPYSVVCKYFQRGYCIYGDRCRYEHSKPLKQEEATATELTTKSSLAASSSLSSIVGPLVEMNTGEAESRNSNFATVGAGSEDWVNAIEFVPGQPYCGRTAPSCTEAPLQGSVTKEESEKEQTAVETKKQLCPYAAVGECRYGENCVYLHGDSCDMCGLQLLHPMDAAQRSQHIKSCIEAHEKDMELSFAVQRSKDMVCGICMEVVYEKANPSERRFGILSNCNHTYCLKCIRKWRSAKQFESKIIKSCPECRITSNFVIPSEYWVEEKEEKQKLILKYKEAMSNKACRYFDEGRGSCPFGGNCFYKHAYPDAGREEPQRQKVGTSSRYRAQRRNHFWELIEERENSNPFDNDEEEVVTFELGEMLLMLLAAGGDDELTDSEDEWDLFHDELEDFYDLDL
notes: Full-length MKRN1 expressed in transfected H1299 cells
in vitro ubiquitination assay (anti-HA immunoblot) [2]: the C-terminal domain (residues 946-1132) of hTERT was efficiently ubiquitinated by wild-type MKRN1

binding result [3]: binds
B2: MKRN1^H307E-V5 (enzyme, not shown: small tags and cut ends)
chain: B1 chain with H307E
notes: Expressed in transfected H1299 cells together with wild-type MKRN1-V5; also called hMKRN1^H307E
in vitro ubiquitination assay (anti-HA immunoblot) [2]: but not by mutants MKRN1^307E or MKRN1^ΔC
